Experimental data as given in patent US8357518B2, “Thermostable enzymes for the hydrolysis of mannan-containing polysaccharides” (The Board of Trustees of the University of Illinois, priority 2010, dated 2013).

Key:
[1] = substrate: O=[N+]([O-])c1ccc(O[C@@H]2O[C@H](CO)[C@@H](O)[C@H](O)[C@@H]2O)cc1; experiment: Catalytic efficiency with pNP-linked sugars (Man5A-TM1); type: biochemical, Caldanaerobius polysaccharolyticus; details: other: Man5A-TM1, pNP substrates, citrate buffer 50 mM, pH 5.5, 65° C., triplicate
Procedure: The plasmid constructs were then introduced into E. coli BL-21 CodonPlus (DE3) RIL competent cells by heat shock, and grown overnight in lysogeny broth (LB) agar medium supplemented with ampicillin (100 μg/mL) and chloramphenicol (50 μg/mL) at 37° C. After 12 h, single colonies were selected and used to inoculate fresh LB (10 mL) supplemented with the antibiotics above at the same concentrations, followed by culturing with aeration for 8 h at 37° C. The pre-cultures were then inoculated into fresh LB (1 L) supplemented with ampicillin and chloramphenicol and the cultures were incubated at 37° C. with vigorous aeration (225 rpm/min). […] Aliquots of eluted fractions were analyzed by sodium dodecyl sulfate-polyacrylamide gel electrophoresis (SDS-PAGE) and protein bands were visualized by staining with Coomassie brilliant blue G-250. […] The UV absorbances of the protein solutions were recorded at 280 nm using a Nanoprop 1000 from Thermo Scientific (Waltham, Mass.) and the protein concentrations were calculated using the following extinction coefficients: Man5A-TM1, ε280 nm=189 mM^−1 cm^−1; Man5A-TM2, ε280 nm=113 mM^−1 cm^−1; Man5B, ε280 nm=103 mM^−1 cm^−1.
Hydrolysis of para-nitrophenyl (pNP) linked sugars. […] The extinction coefficient of pNP at pH 5.5 was determined as 1636 M^−1 cm^−1.

[2] = substrate: OC[C@H]1O[C@@H](O[C@H]2[C@H](O)[C@@H](O)[C@H](O[C@H]3[C@H](O)[C@@H](O)[C@H](O[C@H]4[C@H](O)[C@@H](O)[C@H](O[C@H]5[C@H](O)[C@@H](O)[C@H](O[C@H]6[C@H](O)[C@@H](O)C(O)O[C@@H]6CO)O[C@@H]5CO)O[C@@H]4CO)O[C@@H]3CO)O[C@@H]2CO)[C@H](O)[C@@H](O)[C@@H]1O; experiment: purified protein, by the assay type; details: other: Man5B 3 nM, oligosaccharide 30 μM, citrate buffer 50 mM, pH 5.5, 5 min, triplicate
[3] = substrate: OC[C@H]1O[C@@H](O[C@H]2[C@H](O)[C@@H](O)[C@H](O[C@H]3[C@H](O)[C@@H](O)C(O)O[C@@H]3CO)O[C@@H]2CO)[C@H](O)[C@@H](O)[C@@H]1O; experiment: purified protein, by the assay type; details: other: Man5B 3 nM, oligosaccharide 30 μM, citrate buffer 50 mM, pH 5.5, 5 min, triplicate
[4] = substrate: OC[C@H]1O[C@@H](O[C@H]2[C@H](O)[C@@H](O)[C@H](O[C@H]3[C@H](O)[C@@H](O)[C@H](O[C@H]4[C@H](O)[C@@H](O)C(O)O[C@@H]4CO)O[C@@H]3CO)O[C@@H]2CO)[C@H](O)[C@@H](O)[C@@H]1O; experiment: purified protein, by the assay type; details: other: Man5B 3 nM, oligosaccharide 30 μM, citrate buffer 50 mM, pH 5.5, 5 min, triplicate
[5] = substrate: OC[C@H]1O[C@@H](O[C@H]2[C@H](O)[C@H](O)[C@H](O[C@H]3[C@H](O)[C@H](O)C(O)O[C@@H]3CO)O[C@@H]2CO)[C@@H](O)[C@@H](O)[C@@H]1O; experiment: purified protein, by the assay type; details: other: Man5B 3 nM, oligosaccharide 30 μM, citrate buffer 50 mM, pH 5.5, 5 min, triplicate
[6] = substrate: OC[C@H]1O[C@@H](O[C@H]2[C@H](O)[C@H](O)[C@H](O[C@H]3[C@H](O)[C@H](O)[C@H](O[C@H]4[C@H](O)[C@H](O)C(O)O[C@@H]4CO)O[C@@H]3CO)O[C@@H]2CO)[C@@H](O)[C@@H](O)[C@@H]1O; experiment: purified protein, by the assay type; details: other: Man5B 3 nM, oligosaccharide 30 μM, citrate buffer 50 mM, pH 5.5, 5 min, triplicate
[7] = substrate: OC[C@H]1O[C@@H](O[C@H]2[C@H](O)[C@H](O)[C@H](O[C@H]3[C@H](O)[C@H](O)[C@H](O[C@H]4[C@H](O)[C@H](O)[C@H](O[C@H]5[C@H](O)[C@H](O)[C@H](O[C@H]6[C@H](O)[C@H](O)C(O)O[C@@H]6CO)O[C@@H]5CO)O[C@@H]4CO)O[C@@H]3CO)O[C@@H]2CO)[C@@H](O)[C@@H](O)[C@@H]1O; experiment: purified protein, by the assay type; details: other: Man5B 3 nM, oligosaccharide 30 μM, citrate buffer 50 mM, pH 5.5, 5 min, triplicate

B1: Caldanaerobius polysaccharolyticus endo-β-mannanase Man5A truncation mutant Man5A-TM1, SEQ ID NO: 28 (Caldanaerobius polysaccharolyticus) (protein)
chain: AGTSGDGRFHVVGNKIVDPDGKDFIIKGVNIQGYRSWEKRSVLQDVHLIADVWKFNTVRLNCFIGQNNWGEGTGANNDIDAIIKAFTAKKVVVEIDLHDTTGYPPLSNPPPAPGQPSLDQAIAWFKELAAKYKDNPYVWFNTMNEPGSSTAPLDPQWKVANEEIIKAIRSTGADNIIVVDGWSYANEGIEQNTPTVDEKRSAVLTYGQDLLNADSAKNTIFAFHNYNEGDIQKKVEDYIDRANAKGLYVFMEEYGKDYSDAAKEGVKSGLQAVMNKGAGRIYWNWDGYDLYDLTSGTGRGSGWEINKTDGSKPTNLSWVGDKIWDDNHGITPTFDDQNPKVDLALERLIANNNGFKAGDKVQFTTFLRNSGDLPIGKDSKVVVKFYVDGVQLGDPVEISGGIAVGQRIPVTSPELTVSKTDFTVKAVIDSSSTYADGAEDAVIENNWIEAAFNSTAPSSGYELVVTGIKITPDTVKEGDYVQAQVTVANQGPEATPVTNIIGWFYVNGYYYTLDDAAKSCAEQDNVTLKPGESITLSTKVKYRAAAPFNFSFVLENLYADDQNQSNNSITVNVPVKMGEGGVNMVSNPGFEDGLDSWQDWQQDMSAVPEAAHNGALGLKIGGGKAAGGGQDIPLKPNTTYILGAWAKFDSKPAGTFDVVVQYHLKDANNTYVQHILNFNETDWTYKQLLFTTPDVFGSTPQLALWKGDTSKANLYVDDVYLVEVSNLIVNGTAENGMDGWPDWGYPVSAVPEAAYGGTKGFKLSGGKQAGMGQKVALKPNTTYILGAWGKFTAKPGTYCDVIVQYHLKDANNTYVQNILRFTETDWTYKQVVFTTPDAFGSDPEFVLWKDDASNADFYADNITLVEV
For B1, the kcat/Km [1] was “(1.4 ± 0.3) × 10^−2 mM^−1 s^−1”.

B2: Caldanaerobius polysaccharolyticus endo-β-mannanase Man5B, wild type, SEQ ID NO: 31 (Caldanaerobius polysaccharolyticus) (protein)
chain: MKKYGFNFQWMYVWEEGREPEPPDKKALDFLAETGFNFVRIPVDYRFWTRNFDYFNPDKKVFEYIDLYLRECSARNIHMCLNLHRAPGYCINRNDIERDNLWLDKRAQDGFVYQWELFAKRYKGVSSKFLSFDLVNEPPNIGQYGLTRENHASLIIRTVEAIRKIDPDREIVIDGLGGGNIAMPELAHLGVVHSGRGYQPMALTHYQASWWDGHKGLPEPYYPDLLWQGKVWNKDTLREYYKPWRDLQQKGVNVHIGEFGCFNKTSNDVAIRWFEDVLSLYKEFEWGYSLWNFKGPFGIVEHGRPGAKYEYYRGFKVDRELLDLLVENRV
B2 was tested, and the kcat/Km [2] was 43000 ± 3000 M⁻¹ s⁻¹, the kcat/Km [3] was 1000 ± 70 M⁻¹ s⁻¹ and the kcat/Km [4] was 1400 ± 200 M⁻¹ s⁻¹. For the same protein, the kcat/Km [5] was 270 ± 50 M⁻¹ s⁻¹, the kcat/Km [6] was 63000 ± 6000 M⁻¹ s⁻¹ and the kcat/Km [7] was “(2.7 ± 0.7) × 10^2 mM^−1 s^−1”.
